{"source": "patent US20110136733A1", "about": "(IPSEN PHARMA S A S, published 2011)", "note": "Where no end group is shown, it is not given here. [ ]: non-standard residue; d: D form. Ac6c = NC1(C(=O)O)CCCCC1; Aib = CC(C)(N)C(=O)O", "data": [{"target": "T1, human recombinant GIP receptor (human, UniProt P48546 22-466)", "T1 construct": "whole, on cells; Membranes of CHO-K1 cells expressing the receptor; also called hGIP receptor", "T1 sequence (looked up)": "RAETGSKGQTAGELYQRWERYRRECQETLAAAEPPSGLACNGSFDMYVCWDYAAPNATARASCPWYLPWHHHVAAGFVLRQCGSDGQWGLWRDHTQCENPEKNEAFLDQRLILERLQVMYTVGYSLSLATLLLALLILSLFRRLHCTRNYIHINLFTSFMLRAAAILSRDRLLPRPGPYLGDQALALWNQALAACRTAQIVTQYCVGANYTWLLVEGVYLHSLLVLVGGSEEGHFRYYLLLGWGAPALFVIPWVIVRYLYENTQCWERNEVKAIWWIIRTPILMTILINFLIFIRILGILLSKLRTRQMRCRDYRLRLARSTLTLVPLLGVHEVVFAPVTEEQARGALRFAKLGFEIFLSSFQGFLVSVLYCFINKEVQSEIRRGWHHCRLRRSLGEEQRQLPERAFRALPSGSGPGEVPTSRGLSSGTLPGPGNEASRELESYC", "assay": "[125I]GIP competition, membranes of CHO-K1 cells expressing human GIP receptor", "units": {"Ki": "nM"}, "values": [{"molecule": "(Pro^3, A5c^11, Nle^14)hGIP(1-30)-OH (peptide)", "Ki": 86.8}, {"molecule": "YXEGTFIXDYSIAMDKIHQQDFVNWLLAQKGKKNDWKHNITQ (Aib at 2 and 8; C-terminal free acid)", "note": "[(Aib^2, 8)hGIP(1-42)-OH]", "Ki": 16.2}, {"molecule": "YGEGTFISDYXIAXDKIHQQDFVNWLLAQKGKKNDWKHNITQH (A5c at 11; Nle at 14; C-terminal free acid)", "note": "[(Gly^2, A5c^11, Nle^14, His^43)hGIP(1-43)-OH]", "Ki": 0.87}, {"molecule": "YAEGTFISDYXIAXDKIHQQDFVNWLLAQKGKKNDWKHNITQH (D-Ala at 2; A5c at 11; Nle at 14; C-terminal free acid, X stands for the non-natural residue)", "note": "[(D-Ala^2, A5c^11, Nle^14, His^43)hGIP(1-43)-OH]", "Ki": 0.66}, {"molecule": "YAPGTFISDYXIAXDKIHQQDFVNWLLAQK (A5c at 11; A6c at 14; C-terminal amide)", "note": "[(Pro^3, A5c^11, A6c^14)hGIP(1-30)-NH2]", "Ki": 871}, {"molecule": "YAEGTFISDYXIAXDKIHQQDFVNWLLAQK (D-Ala at 2; A5c at 11 and 14; C-terminal amide, X stands for the non-natural residue)", "note": "[(D-Ala^2, A5c^11, 14)hGIP(1-30)-NH2]", "Ki": 0.46}, {"molecule": "YAEGTFISDYXIAMDKIHQQDFVNWLLAQKH (D-Ala at 2; A5c at 11; C-terminal amide, X stands for the non-natural residue)", "note": "[(D-Ala^2, A5c^11, His^31)hGIP(1-31)-NH2]", "Ki": 0.87}, {"molecule": "YXEGTFISDYXIAXDKIHQQDFVNWLLAQKGKKNDWKHNITQH (Aib at 2; A5c at 11 and 14; C-terminal free acid)", "note": "[(Aib^2, A5c^11,14, His^43)hGIP(1-43)-OH]", "Ki": 0.55}, {"molecule": "Y[Aib]E[Aib]TFISDYSIAMDKIHQQDFVNWLLAQKGKKNDWKHNITQ-OH", "note": "[(Aib^2, 4)hGIP(1-42)-OH]", "Ki": 80.1}, {"molecule": "YXEGXFISDYSIAMDKIHQQDFVNWLLAQK (Aib at 2; A5c at 5; C-terminal amide)", "note": "[(Aib^2, A5c^5)hGIP(1-30)-NH2]", "Ki": 2.05}, {"molecule": "YXEGTFXSDYSIAMDKIHQQDFVNWLLAQK (Aib at 2; A5c at 7; C-terminal amide)", "note": "[(Aib^2, A5c^7)hGIP(1-30)-NH2]", "Ki": 0.27}, {"molecule": "YXPGTFXSDYSIAMDKIHQQDFVNWLLAQK (Aib at 2; A6c at 7; C-terminal amide)", "note": "[(Aib^2, Pro^3, A6c^7)hGIP(1-30)-NH2]", "Ki": 333}, {"molecule": "YXEGTFISDYSXAMDKIHQQDFVNWLLAQK (Aib at 2; A5c at 12; C-terminal amide)", "note": "[(Aib^2, A5c^12)hGIP(1-30)-NH2]", "Ki": 0.98}, {"molecule": "YXEXTFISDYSIAMDKIHQQDFVNWLLAQK (Aib at 2 and 4; C-terminal amide)", "note": "[(Aib^2, 4)hGIP(1-30)-NH2]", "Ki": 107}, {"molecule": "YXEGXFISDYSIAMDKIHQQDFVNWLLAQK (Aib at 2 and 5; C-terminal amide)", "note": "[(Aib^2, 5)hGIP(1-30)-NH2]", "Ki": 3.33}, {"molecule": "YXEGTFXSDYSIAMDKIHQQDFVNWLLAQK (Aib at 2 and 7; C-terminal amide)", "note": "[(Aib^2, 7)hGIP(1-30)-NH2]", "Ki": 0.53}, {"molecule": "YXEGTFIXDYSIAMDKIHQQDFVNWLLAQK (Aib at 2 and 8; C-terminal amide)", "note": "[(Aib^2, 8)hGIP(1-30)-NH2]", "Ki": 15.9}, {"molecule": "YXEGTFISXYSIAMDKIHQQDFVNWLLAQK (Aib at 2 and 9; C-terminal amide)", "note": "[(Aib^2, 9)hGIP(1-30)-NH2]", "Ki": 5.38}, {"molecule": "YXEGTFISDYXIAMDKIHQQDFVNWLLAQKGKKNDWKHNITQ (Aib at 2 and 11; C-terminal free acid)", "note": "[(Aib^2, 11)hGIP(1-42)-OH]", "Ki": 1.2}, {"molecule": "YXEGTFISDYXIAMDKIHQQDFVNWLLAQK (Aib at 2 and 11; C-terminal amide)", "note": "[(Aib^2, 11)hGIP(1-30)-NH2]", "Ki": 0.37}, {"molecule": "YXPGTFISDYXIAMDKIHQQDFVNWLLAQK (Aib at 2; A5c at 11; C-terminal amide)", "note": "[(Aib^2, Pro^3, A5c^11)hGIP(1-30)-NH2]", "Ki": 216}, {"molecule": "YXEGTFISDYSXAMDKIHQQDFVNWLLAQK (Aib at 2 and 12; C-terminal amide)", "note": "[(Aib^2, 12)hGIP(1-30)-NH2]", "Ki": 1.84}, {"molecule": "YXEGTFXSDYSIXXDKIHQQDFVNWLLAQKGKKNDWKHNITQ (Aib at 2 and 13; A6c at 7; Nle at 14; C-terminal free acid)", "note": "[(Aib^2, 13, A6c^7, Nle^14)hGIP(1-42)-OH]", "Ki": 0.3}, {"molecule": "YXEGTFXSDYSIAMDKIHQQDFVNWLLAQKXKKNDWKHNITQ (Aib at 2 and 31; A6c at 7; C-terminal free acid)", "note": "[(Aib^2, 31, A6c^7)hGIP(1-42)-OH]", "Ki": 6.96}, {"molecule": "Y[Aib]EGTF[Ac6c]SDYSIAMDKIHQQDFVNWLLAQKGKKNDWKHNI[Aib]Q-OH", "note": "[(Aib^2, 41, A6c^7)hGIP(1-42)-OH]", "Ki": 0.87}]}]}
